Data from publication PMC10499876, “Arabidopsis TCP4 transcription factor inhibits high temperature-induced homeotic conversion of ovules”.

Target: T1, TCP4 DNA binding domain (Arabidopsis thaliana, UniProt Q8LPR5 45-103)
T1 sequence: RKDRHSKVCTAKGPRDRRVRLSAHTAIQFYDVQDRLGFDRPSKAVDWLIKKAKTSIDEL
Assay: EMSA; EMSA: ~180 ng protein + ~200 ng dsDNA, 4 °C 20 min; DNA annealed in 25 mM Tris, 100 mM NaCl pH 8.0; 7% native PAGE in 0.5x TBE, ethidium bromide; binding buffer not stated
Settings: protein: recombinant; tags: C-terminal His (pET-21b); chain copies: 2; blunt

B1: CRC promoter probe (dsDNA)
DNA 1: CAGGAAAGGACCATTCTTAA
DNA 2: TTAAGAATGGTCCTTTCCTG
  binding result: binds
